{"source": "paper PMC12137749", "about": "(Nature Communications, 2025)", "proteins": {"B1": {"name": "full-length MPXV E5 (mpox virus helicase-primase E5), wild type (enzyme)", "chain": "MDAAIRGNDVIFVLKTIGVPSACRQNEDPRFVEAFKCDELERYIDNNPECTLFESLRDEEAYSIVRIFMDVDLDACLDEIDYLTAIQDFIIEVSNCVARFAFTECGAIHENVIKSMRSNFSLTKSTNRDKTSFHIIFLDTYTTMDTLIAMKRTLLELSRSSENPLTRSIDTAVYRRKTTLRVVGTRKNPNCDTIHVMQPPHDNIEDYLFTYVDMNNNSYYFSLQRRLEDLVPDKLWEPGFISFEDAIKRVSKIFINSIINFNDLDENNFTTVPLVIDYVTPCALCKKRSHKHPHQLSLENGAIRIYKTGNPHSCKVKIVPLDGNKLFNIAQRILDTNSVLLTERGDHIVWINNSWKFNSEEPLITKLILSIRHQLPKEYSSELLCPRKRKTVEANIRDMLVDSVETDTYPDKLPFKNGVLDLVDGMFYSGDDAKKYTCTVSTGFKFDDTKFVEDSPEMEELMNIINDIQPLTDENKKNRELYEKTLSSCLCGATKGCLTFFFGETATGKSTTKRLLKSAIGDLFVETGQTILTDVLDKGPNPFIANMHLKRSVFCSELPDFACSGSKKIRSDNIKKLTEPCVIGRPCFSNKINNRNHATIIIDTNYKPVFDRIDNALMRRIAVVRFRTHFSQPSGREAAENNDAYDKVKLLDEGLDGKIQNNRYRFAFLYLLVKWYKKYHIPIMKLYPTPEEIPDFAFYLKIGTLLVSSSVKHIPLMTDLSKKGYILYDNVVTLPLTTFQQKISKYFNSRLFGHDIESFINRHKKFANVSDEYLQYIFIEDISSP"}}, "key": {"[1]": {"biological_target": "the molecule itself"}, "cryo-EM structure": {"biological_target": "the molecule itself", "assay": "cryo-EM structure"}}, "note": "Read-outs that look alike come from different tables or passages of the source.", "data": [{"protein": "B1", "values": [{"measurement": "stoichiometry N", "setting": "[1]", "result": 6}, {"measurement": "stoichiometry N", "setting": "cryo-EM structure", "result": 12}]}]}
